Assay results as given in the supplement of paper PMC9112550, “Optimization of the antimicrobial peptide Bac7 by deep mutational scanning” (BMC Biology, 2022).

test system: Escherichia coli TOP10; experiment: shrunken log2 fold change of peptide-encoding DNA abundance (4.5 h post-induction vs induction); higher = less antimicrobial activity (less host growth inhibition); conditions: time post-induction: 4.5 h; library: site-saturation at positions 5, 18, 19, 20
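Note: peptides expressed intracellularly from a pBAD plasmid library in pooled LB shake-flask culture, induced with 0.3% L-arabinose, DNA abundance read by NGS, three biological replicates, DESeq2 with apeglm shrinkage.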

RRIRPRPPRLPRPRPRPPSNPRP and RRIRHRPPRLPRPRPRPSWYPRP are within 0.2 log units of each other in “shrunken log2 fold change” value: -0.0339 for the first, -0.152 for the second.

RRIRARPPRLPRPRPRPSTHPRP and RRIRGRPPRLPRPRPRPFQPPRP are within 0.2 log units of each other in “shrunken log2 fold change” value: -0.0532 for the first, 0.0927 for the second.

First: RRIRLRPPRLPRPRPRPMKMPRP
Second: RRIRERPPRLPRPRPRPSKFPRP
The “shrunken log2 fold change” value of the first is lower: -0.409 for the first, -0.199 for the second.

RRIRLRPPRLPRPRPRPQLQPRP and RRIRDRPPRLPRPRPRPKTKPRP are within 0.2 log units of each other in “shrunken log2 fold change” value: 0.037 for the first, -0.0788 for the second.

First: RRIRMRPPRLPRPRPRPGPQPRP
Second: RRIRARPPRLPRPRPRPGDYPRP
The “shrunken log2 fold change” value of the first is higher: 1.21 for the first, 0.226 for the second.

RRIRHRPPRLPRPRPRPGSKPRP and RRIRERPPRLPRPRPRPDPEPRP are within 0.2 log units of each other in “shrunken log2 fold change” value: -0.00664 for the first, -0.159 for the second.

Compared with RRIRWRPPRLPRPRPRPMMHPRP, RRIRFRPPRLPRPRPRPVCSPRP is lower in “shrunken log2 fold change” value: 0.159 for the first, -0.279 for the second.

Compared with RRIRQRPPRLPRPRPRPNNPPRP, RRIRYRPPRLPRPRPRPCSLPRP is higher in “shrunken log2 fold change” value: -0.282 for the first, 0.0201 for the second.

Going from RRIRKRPPRLPRPRPRPYTCPRP to RRIRFRPPRLPRPRPRPVSCPRP, the “shrunken log2 fold change” value falls from -0.175 to -0.514.

RRIRVRPPRLPRPRPRPLCCPRP and RRIRFRPPRLPRPRPRPIPWPRP are within 0.2 log units of each other in “shrunken log2 fold change” value: -0.0983 for the first, -0.14 for the second.

RRIRFRPPRLPRPRPRPIPNPRP and RRIRFRPPRLPRPRPRPVDPPRP are within 0.2 log units of each other in “shrunken log2 fold change” value: -0.361 for the first, -0.228 for the second.

RRIRFRPPRLPRPRPRPCWEPRP and RRIRERPPRLPRPRPRPYPTPRP are within 0.2 log units of each other in “shrunken log2 fold change” value: -0.356 for the first, -0.397 for the second.

First: RRIRVRPPRLPRPRPRPVWVPRP
Second: RRIRIRPPRLPRPRPRPRFEPRP
The “shrunken log2 fold change” value of the first is lower: -0.123 for the first, 0.131 for the second.

First: RRIRWRPPRLPRPRPRPRTWPRP
Second: RRIRRRPPRLPRPRPRPVHFPRP
The “shrunken log2 fold change” value of the first is higher: 0.292 for the first, -0.278 for the second.

RRIRRRPPRLPRPRPRPENCPRP and RRIRERPPRLPRPRPRPDLIPRP are within 0.2 log units of each other in “shrunken log2 fold change” value: 0.0654 for the first, -0.0979 for the second.

RRIRHRPPRLPRPRPRPAWYPRP and RRIRQRPPRLPRPRPRPCRHPRP are within 0.2 log units of each other in “shrunken log2 fold change” value: -0.0318 for the first, -0.000946 for the second.

Compared with RRIRYRPPRLPRPRPRPSQPPRP, RRIRRRPPRLPRPRPRPSAAPRP is higher in “shrunken log2 fold change” value: -0.0421 for the first, 1.13 for the second.

RRIRYRPPRLPRPRPRPPFEPRP and RRIRYRPPRLPRPRPRPYQAPRP are within 0.2 log units of each other in “shrunken log2 fold change” value: -0.0385 for the first, -0.0933 for the second.

First: RRIRARPPRLPRPRPRPVATPRP
Second: RRIRDRPPRLPRPRPRPFWFPRP
The “shrunken log2 fold change” value of the first is higher: 0.982 for the first, 0.0429 for the second.

RRIRTRPPRLPRPRPRPEMQPRP and RRIRCRPPRLPRPRPRPLQFPRP are within 0.2 log units of each other in “shrunken log2 fold change” value: -0.00136 for the first, -0.0752 for the second.

RRIRARPPRLPRPRPRPEWIPRP and RRIRCRPPRLPRPRPRPIRGPRP are within 0.2 log units of each other in “shrunken log2 fold change” value: 0.129 for the first, 0.0532 for the second.

First: RRIRHRPPRLPRPRPRPYMDPRP
Second: RRIRCRPPRLPRPRPRPPPGPRP
The “shrunken log2 fold change” value of the first is lower: -0.356 for the first, 1.47 for the second.

Compared with RRIRCRPPRLPRPRPRPWNKPRP, RRIRWRPPRLPRPRPRPELHPRP is higher in “shrunken log2 fold change” value: -0.684 for the first, 0.308 for the second.

RRIRDRPPRLPRPRPRPMNCPRP and RRIRRRPPRLPRPRPRPNGYPRP are within 0.2 log units of each other in “shrunken log2 fold change” value: -0.00373 for the first, 0.17 for the second.

First: RRIRVRPPRLPRPRPRPEDDPRP
Second: RRIRWRPPRLPRPRPRPLCVPRP
The “shrunken log2 fold change” value of the first is lower: -0.17 for the first, 0.0447 for the second.

First: RRIRVRPPRLPRPRPRPSDCPRP
Second: RRIRFRPPRLPRPRPRPAQQPRP
The “shrunken log2 fold change” value of the first is higher: 0.234 for the first, -0.0456 for the second.

First: RRIRLRPPRLPRPRPRPDTHPRP
Second: RRIRPRPPRLPRPRPRPAFYPRP
The “shrunken log2 fold change” value of the first is lower: -0.543 for the first, -0.00911 for the second.

RRIRQRPPRLPRPRPRPDMCPRP and RRIRGRPPRLPRPRPRPIHFPRP are within 0.2 log units of each other in “shrunken log2 fold change” value: -0.225 for the first, -0.252 for the second.

RRIRPRPPRLPRPRPRPENPPRP and RRIRSRPPRLPRPRPRPDQRPRP are within 0.2 log units of each other in “shrunken log2 fold change” value: 0.0677 for the first, 0.0901 for the second.

First: RRIRVRPPRLPRPRPRPGCFPRP
Second: RRIRERPPRLPRPRPRPIPSPRP
The “shrunken log2 fold change” value of the first is higher: 0.15 for the first, -0.109 for the second.

First: RRIRRRPPRLPRPRPRPTVLPRP
Second: RRIRYRPPRLPRPRPRPWSWPRP
The “shrunken log2 fold change” value of the first is lower: -0.227 for the first, 0.0225 for the second.

Compared with RRIRIRPPRLPRPRPRPEHAPRP, RRIRSRPPRLPRPRPRPANIPRP is lower in “shrunken log2 fold change” value: 0.00666 for the first, -0.484 for the second.

Going from RRIRGRPPRLPRPRPRPLQIPRP to RRIRVRPPRLPRPRPRPWIWPRP, the “shrunken log2 fold change” value falls from 0.803 to 0.00605.

RRIRERPPRLPRPRPRPWFAPRP and RRIRPRPPRLPRPRPRPLKLPRP are within 0.2 log units of each other in “shrunken log2 fold change” value: -0.276 for the first, -0.267 for the second.

RRIRRRPPRLPRPRPRPIYNPRP and RRIRLRPPRLPRPRPRPSTPPRP are within 0.2 log units of each other in “shrunken log2 fold change” value: -0.246 for the first, -0.207 for the second.

First: RRIRYRPPRLPRPRPRPQNTPRP
Second: RRIRMRPPRLPRPRPRPVDAPRP
The “shrunken log2 fold change” value of the first is lower: -1.07 for the first, 1.17 for the second.

Compared with RRIRNRPPRLPRPRPRPTFYPRP, RRIRDRPPRLPRPRPRPNEMPRP is higher in “shrunken log2 fold change” value: -0.376 for the first, 0.00902 for the second.

With RRIRKRPPRLPRPRPRPQHGPRP the “shrunken log2 fold change” value was 0.205.
